Results as given in ChEMBL document CHEMBL4043061, “Potent, Selective, Allosteric Inhibition of Human Plasmin by Sulfated Non-Saccharide Glycosaminoglycan Mimetics” (J Med Chem, 2017).

Experiments:
[1] = substrate: O=c1c(OS(=O)(=O)O)c(-c2ccc(OS(=O)(=O)O)c(OS(=O)(=O)O)c2)oc2cc(OS(=O)(=O)O)cc(OCc3ccc(COc4cc(OS(=O)(=O)O)cc5oc(-c6ccc(OS(=O)(=O)O)c(OS(=O)(=O)O)c6)c(OS(=O)(=O)O)c(=O)c45)cc3)c12; details: Homo sapiens; 8 uM
Description: Uncompetitive allosteric inhibition of human plasmin assessed as substrate Km at 8 uM using chromogenic substrate spectrozyme PL by Michaelis-Menten plot analysis

[2] = substrate: O=c1c(OS(=O)(=O)O)c(-c2ccc(OS(=O)(=O)O)c(OS(=O)(=O)O)c2)oc2cc(OS(=O)(=O)O)cc(OCc3ccc(COc4cc(OS(=O)(=O)O)cc5oc(-c6ccc(OS(=O)(=O)O)c(OS(=O)(=O)O)c6)c(OS(=O)(=O)O)c(=O)c45)cc3)c12; details: Homo sapiens; 1.6 uM
Description: Uncompetitive allosteric inhibition of human plasmin assessed as substrate Km at 1.6 uM using chromogenic substrate spectrozyme PL by Michaelis-Menten plot analysis

[3] = substrate: O=c1c(O)c(-c2ccc(O)c(O)c2)oc2cc(O)cc(OCc3ccc(COc4cc(O)cc5oc(-c6ccc(O)c(O)c6)c(O)c(=O)c45)cc3)c12; details: Homo sapiens; 240 uM
Description: Uncompetitive allosteric inhibition of human plasmin assessed as substrate Km at 240 uM using chromogenic substrate spectrozyme PL by Michaelis-Menten plot analysis

[4] = substrate: O=c1c(OS(=O)(=O)O)c(-c2ccc(OS(=O)(=O)O)c(OS(=O)(=O)O)c2)oc2cc(OS(=O)(=O)O)cc(OCc3ccc(COc4cc(OS(=O)(=O)O)cc5oc(-c6ccc(OS(=O)(=O)O)c(OS(=O)(=O)O)c6)c(OS(=O)(=O)O)c(=O)c45)cc3)c12; details: Homo sapiens; 40 uM
[5] = substrate: O=c1c(OS(=O)(=O)O)c(-c2ccc(OS(=O)(=O)O)c(OS(=O)(=O)O)c2)oc2cc(OS(=O)(=O)O)cc(OCc3ccc(COc4cc(OS(=O)(=O)O)cc5oc(-c6ccc(OS(=O)(=O)O)c(OS(=O)(=O)O)c6)c(OS(=O)(=O)O)c(=O)c45)cc3)c12; details: Homo sapiens; 8 uM; remark: listed apart in the source
Description: Uncompetitive allosteric inhibition of human plasmin assessed as Vmax for substrate hydrolysis at 8 uM using chromogenic substrate spectrozyme PL by Michaelis-Menten plot analysis

[6] = substrate: O=c1c(O)c(-c2ccc(O)c(O)c2)oc2cc(O)cc(OCc3ccc(COc4cc(O)cc5oc(-c6ccc(O)c(O)c6)c(O)c(=O)c45)cc3)c12; details: Homo sapiens; 240 uM; remark: listed apart in the source
Description: Competitive allosteric inhibition of human plasmin assessed as Vmax for substrate hydrolysis at 240 uM using chromogenic substrate spectrozyme PL by Michaelis-Menten plot analysis

[7] = substrate: O=c1c(OS(=O)(=O)O)c(-c2ccc(OS(=O)(=O)O)c(OS(=O)(=O)O)c2)oc2cc(OS(=O)(=O)O)cc(OCc3ccc(COc4cc(OS(=O)(=O)O)cc5oc(-c6ccc(OS(=O)(=O)O)c(OS(=O)(=O)O)c6)c(OS(=O)(=O)O)c(=O)c45)cc3)c12; details: Homo sapiens; 100 uM
[8] = substrate: O=c1c(O)c(-c2ccc(O)c(O)c2)oc2cc(O)cc(OCc3ccc(COc4cc(O)cc5oc(-c6ccc(O)c(O)c6)c(O)c(=O)c45)cc3)c12; details: Homo sapiens; 100 uM
[9] = substrate: O=c1c(OS(=O)(=O)O)c(-c2ccc(OS(=O)(=O)O)c(OS(=O)(=O)O)c2)oc2cc(OS(=O)(=O)O)cc(OCc3ccc(COc4cc(OS(=O)(=O)O)cc5oc(-c6ccc(OS(=O)(=O)O)c(OS(=O)(=O)O)c6)c(OS(=O)(=O)O)c(=O)c45)cc3)c12; details: Homo sapiens; 200 uM
[10] = substrate: O=c1c(OS(=O)(=O)O)c(-c2ccc(OS(=O)(=O)O)c(OS(=O)(=O)O)c2)oc2cc(OS(=O)(=O)O)cc(OCc3ccc(COc4cc(OS(=O)(=O)O)cc5oc(-c6ccc(OS(=O)(=O)O)c(OS(=O)(=O)O)c6)c(OS(=O)(=O)O)c(=O)c45)cc3)c12; details: Homo sapiens; 100 uM; remark: listed apart in the source
[11] = substrate: O=c1c(OS(=O)(=O)O)c(-c2ccc(OS(=O)(=O)O)c(OS(=O)(=O)O)c2)oc2cc(OS(=O)(=O)O)cc(OCc3ccc(COc4cc(OS(=O)(=O)O)cc5oc(-c6ccc(OS(=O)(=O)O)c(OS(=O)(=O)O)c6)c(OS(=O)(=O)O)c(=O)c45)cc3)c12; details: Homo sapiens; 40 uM; remark: listed apart in the source
[12] = substrate: O=c1c(O)c(-c2ccc(O)c(O)c2)oc2cc(O)cc(OCc3ccc(COc4cc(O)cc5oc(-c6ccc(O)c(O)c6)c(O)c(=O)c45)cc3)c12; details: Homo sapiens; 400 uM
[13] = substrate: O=c1c(OS(=O)(=O)O)c(-c2ccc(OS(=O)(=O)O)c(OS(=O)(=O)O)c2)oc2cc(OS(=O)(=O)O)cc(OCc3ccc(COc4cc(OS(=O)(=O)O)cc5oc(-c6ccc(OS(=O)(=O)O)c(OS(=O)(=O)O)c6)c(OS(=O)(=O)O)c(=O)c45)cc3)c12; details: Homo sapiens; 1.6 uM; remark: listed apart in the source
Description: Uncompetitive allosteric inhibition of human plasmin assessed as Vmax for substrate hydrolysis at 1.6 uM using chromogenic substrate spectrozyme PL by Michaelis-Menten plot analysis

[14] = substrate: O=c1c(OS(=O)(=O)O)c(-c2ccc(OS(=O)(=O)O)c(OS(=O)(=O)O)c2)oc2cc(OS(=O)(=O)O)cc(OCc3ccc(COc4cc(OS(=O)(=O)O)cc5oc(-c6ccc(OS(=O)(=O)O)c(OS(=O)(=O)O)c6)c(OS(=O)(=O)O)c(=O)c45)cc3)c12; details: Homo sapiens; 200 uM; remark: listed apart in the source
[15] = substrate: O=c1c(O)c(-c2ccc(O)c(O)c2)oc2cc(O)cc(OCc3ccc(COc4cc(O)cc5oc(-c6ccc(O)c(O)c6)c(O)c(=O)c45)cc3)c12; details: Homo sapiens; 400 uM; remark: listed apart in the source
[16] = substrate: O=c1c(O)c(-c2ccc(O)c(O)c2)oc2cc(O)cc(OCc3ccc(COc4cc(O)cc5oc(-c6ccc(O)c(O)c6)c(O)c(=O)c45)cc3)c12; details: Homo sapiens; 100 uM; remark: listed apart in the source

B1: Plasminogen (Homo sapiens), P00747 (protein)
chain: MEHKEVVLLLLLFLKSGQGEPLDDYVNTQGASLFSVTKKQLGAGSIEECAAKCEEDEEFTCRAFQYHSKEQQCVIMAENRKSSIIIRMRDVVLFEKKVYLSECKTGNGKNYRGTMSKTKNGITCQKWSSTSPHRPRFSPATHPSEGLEENYCRNPDNDPQGPWCYTTDPEKRYDYCDILECEEECMHCSGENYDGKISKTMSGLECQAWDSQSPHAHGYIPSKFPNKNLKKNYCRNPDRELRPWCFTTDPNKRWELCDIPRCTTPPPSSGPTYQCLKGTGENYRGNVAVTVSGHTCQHWSAQTPHTHNRTPENFPCKNLDENYCRNPDGKRAPWCHTTNSQVRWEYCKIPSCDSSPVSTEQLAPTAPPELTPVVQDCYHGDGQSYRGTSSTTTTGKKCQSWSSMTPHRHQKTPENYPNAGLTMNYCRNPDADKGPWCFTTDPSVRWEYCNLKKCSGTEASVVAPPPVVLLPDVETPSEEDCMFGNGKGYRGKRATTVTGTPCQDWAAQEPHRHSIFTPETNPRAGLEKNYCRNPDGDVGGPWCYTTNPRKLYDYCDVPQCAAPSFDCGKPQVEPKKCPGRVVGGCVAHPHSWPWQVSLRTRFGMHFCGGTLISPEWVLTAAHCLEKSPRPSSYKVILGAHQEVNLEPHVQEIEVSRLFLEPTRKDIALLKLSSPAVITDKVIPACLPSPNYVVADRTECFITGWGETQGTFGAGLLKEAQLPVIENKVCNRYEFLNGRVQSTELCAGHLAGGTDSCQGDSGGPLVCFEKDKYILQGVTSWGLGCARPNKPGVYVRVSRFVTWIEGVMRNN
- Km [1]: 20 µM
- Km [2]: 50 µM
- Km [3]: 807 µM
- Vmax [4]: 22.1 mAU/min
- Vmax [5]: 29 mAU/min
- Vmax [6]: 51.7 mAU/min
- Km [7]: 8 µM
- Km [8]: 357 µM
- Km [9]: 4 µM
- Vmax [10]: 15.1 mAU/min
- Km [11]: 20 µM
- Vmax [12]: 51.3 mAU/min
- Vmax [13]: 36.3 mAU/min
- Vmax [14]: 10.4 mAU/min
- Km [15]: 1120 µM
- Vmax [16]: 51 mAU/min
